Test results: paper doi:10.1101/099465

Biological target: Laminin-111 (UniProt P19137)
Experiment: SPR

Kd: 47 nM
Substance: VEGFA165 (ligand)
